For the first test, the target named is T1, Anti-CD28 Fab (SEQ ID NOs: 202, 203).
T1 construct: biotinylated and captured on neutravidin coated plates in the phage ELISA
T1 sequence (VH, as listed by the source, chain 1 of 2): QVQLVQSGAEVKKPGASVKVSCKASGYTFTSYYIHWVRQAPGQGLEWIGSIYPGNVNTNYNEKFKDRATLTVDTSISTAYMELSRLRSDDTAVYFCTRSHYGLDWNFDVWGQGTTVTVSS
T1 sequence (VL, as listed by the source, chain 2 of 2): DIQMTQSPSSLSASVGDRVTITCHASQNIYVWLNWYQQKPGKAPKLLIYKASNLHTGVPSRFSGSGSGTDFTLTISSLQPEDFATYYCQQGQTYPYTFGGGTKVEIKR
As to the kind of experiment: phage ELISA, Fab on plate. (An ELISA detects its analyte on a solid surface through an enzyme-linked reagent.)
Description: After panning, phage infected bacteria were plated out and colonies picked into 96 well blocks. Clonal phage was then amplified and separated from bacterial cells via centrifugation.
Clonal phage were harvested as crude supernatants and screened via standard ELISAs. […] Prior to the addition of clonal phage, wells were incubated with blocking buffer and CD28 antigen or blocking buffer alone. Without washing or aspirating, clonal phage supernatants were then added to the wells and incubated for a short time. Wells were then washed followed by detection of bound phage using a horse radish conjugated anti-M13 antibody. Clonal phage of interest were then sent for sequence analysis.
With YCDGHSEAYIEKCL [Phage-648], the “Anti-CD28 Fab (SEQ ID NOs: 202, 203) signal” value is 1.34.
As for YCDGHLSIYMTKCL [Phage-638], the “Anti-CD28 Fab (SEQ ID NOs: 202, 203) signal” value turned out to be 1.36.
The same measure, in the same setting: in the case of YCEGHLPAYMGKCI [Phage-632] it was 1.37.
As to YCAGHTSEYMSKCL [Phage-634], the “Anti-CD28 Fab (SEQ ID NOs: 202, 203) signal” value came out at 1.36.
The same measure, in the same setting: for YCDGHMVQYMAKCL [Phage-639] the value was 1.36; for YCDGHSEEFMWKCL [Phage-640], 1.35.
Regarding YCEGHSPEYMHKCL [Phage-647], the “Anti-CD28 Fab (SEQ ID NOs: 202, 203) signal” value came out at 1.34.
Regarding YCDGHSETYLWKCL [Phage-631], the “Anti-CD28 Fab (SEQ ID NOs: 202, 203) signal” value is 1.37.
Turning to YCDGHMKEYMLKCL [Phage-635], the “Anti-CD28 Fab (SEQ ID NOs: 202, 203) signal” value stood at 1.36.
On the same count and under the same terms, for YCDGHLALYMWKCL [Phage-637] the value was 1.36.
The same measure, in the same setting: for YCDGHLSEYIGKCL [Phage-629] the value was 1.37; for YCEGHSQLYMAKCL [Phage-630], 1.37.
For YCDGHLPRYMAKCL [Phage-642], the “Anti-CD28 Fab (SEQ ID NOs: 202, 203) signal” value is 1.35.
On the same count and under the same terms, for YCDGHLPDYMAKCL [Phage-712] the value was 1.17.
For YCDGHVKEYMYKCL [Phage-636], the “Anti-CD28 Fab (SEQ ID NOs: 202, 203) signal” value was 1.36.
The same measure, in the same setting: in the case of YCDGHSKEYMAKCL [Phage-646] it was 1.34; in that of YCDGHLLQYMHKCL [Phage-644], 1.35; in that of YCEGHMEKYMEKCL [Phage-641], 1.35.

The next test has the same target. As to the kind of experiment: phage ELISA, Fab on plate, CD28 antigen as competitor.
On to YCDGHSEAYIEKCL [Phage-648], for which the “Anti-CD28 Fab signal in the presence of CD28” value (“Anti-CD28 Fab signal” below) stood at 0.06.
Turning to YCDGHLSIYMTKCL [Phage-638], the “Anti-CD28 Fab signal” value was found to be 0.07.
On the same count and under the same terms, for YCEGHLPAYMGKCI [Phage-632] the value was 0.09.
The same measure, in the same setting: in the case of YCAGHTSEYMSKCL [Phage-634] it was 0.07.
The same measure, in the same setting: for YCDGHMVQYMAKCL [Phage-639] the value was 0.07.
YCDGHSEEFMWKCL [Phage-640]: the “Anti-CD28 Fab signal” value was 0.06.
The same measure, in the same setting: for YCEGHSPEYMHKCL [Phage-647] the value was 0.09; for YCDGHSETYLWKCL [Phage-631], 0.1.
Same read-out and setting: in the case of YCDGHMKEYMLKCL [Phage-635] it was 0.06; in that of YCDGHLALYMWKCL [Phage-637], 0.17.
For the molecule YCDGHLSEYIGKCL [Phage-629], the “Anti-CD28 Fab signal” value was found to be 0.06.
As for YCEGHSQLYMAKCL [Phage-630], the “Anti-CD28 Fab signal” value is 0.07.
Same read-out and setting: in the case of YCDGHLPRYMAKCL [Phage-642] it was 0.1; in that of YCDGHLPDYMAKCL [Phage-712], 0.07; in that of YCDGHVKEYMYKCL [Phage-636], 0.06.
For the molecule YCDGHSKEYMAKCL [Phage-646], the “Anti-CD28 Fab signal” value was found to be 0.06.
Consider YCDGHLLQYMHKCL [Phage-644], for which the “Anti-CD28 Fab signal” value was found to be 0.07.
As to YCEGHMEKYMEKCL [Phage-641], the “Anti-CD28 Fab signal” value is 0.11.

The values are drawn from patent publication US20260274955A1 (JANUX THERAPEUTICS, published 2026).
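For Anti-CD28 Fab (SEQ ID NOs: 202, 203) signal in this document: crude clonal phage supernatants added to wells pretreated with blocking buffer with or without CD28 antigen, then bound phage read out via HRP-linked anti-M13 antibody.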
